The record followed here is article PMC9520404, “G-quadruplexes formation within the promoter of TEAD4 oncogene and their interaction with Vimentin”.

For series [1], the target named is T1, Vimentin (human, UniProt P08670 1-466). Nature of the series: EMSA; 150 mM KCl; 8 uM Vimentin, 500 nM DNA; 5 mM Tris pH 8.4, 150 mM KCl, 1 h at room temperature; 1.5% agarose in 1x TBE + 10 mM KCl, run at 4 C. The following applies: protein: recombinant.
The target in series [2] is T1, Vimentin. The experiment in a line: EMSA; DNA annealed in 150 mM KCl; 8 uM Vimentin, 500 nM DNA; 5 mM Tris pH 8.4, 150 mM KCl, 1 h at room temperature; 1.5% agarose in 1x TBE + 10 mM KCl, run at 4 C. The following applies: protein: recombinant; parallel G4-repeat after annealing in 150 mM KCl. In general terms: A gel shift assay detects complexes by their altered migration in electrophoresis.

Series [3] concerns the target T1, Vimentin. The experiment in a line: EMSA; DNA annealed in 150 mM KCl; no free DNA left; 8 uM Vimentin, 500 nM DNA; 5 mM Tris pH 8.4, 150 mM KCl, 1 h at room temperature; 1.5% agarose in 1x TBE + 10 mM KCl, run at 4 C. To be noted: protein: recombinant; parallel G4-repeat.

T1 sequence (P08670 whole entry): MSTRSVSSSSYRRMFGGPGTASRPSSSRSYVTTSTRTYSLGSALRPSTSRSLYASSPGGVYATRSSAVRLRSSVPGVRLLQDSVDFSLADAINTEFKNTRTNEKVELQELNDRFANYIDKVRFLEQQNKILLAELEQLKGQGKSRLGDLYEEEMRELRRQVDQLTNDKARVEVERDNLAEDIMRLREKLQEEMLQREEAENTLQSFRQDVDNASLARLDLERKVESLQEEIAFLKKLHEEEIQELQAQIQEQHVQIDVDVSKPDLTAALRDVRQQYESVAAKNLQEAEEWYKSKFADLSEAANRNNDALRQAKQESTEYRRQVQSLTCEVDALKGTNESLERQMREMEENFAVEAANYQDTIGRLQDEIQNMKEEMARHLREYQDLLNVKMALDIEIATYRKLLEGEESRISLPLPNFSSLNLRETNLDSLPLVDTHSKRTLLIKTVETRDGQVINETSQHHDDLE

On to CGGGCGGGCGAGGGGCCGGGC (structured_DNA) [TEAD4-near], for which the binding result in series [1] (intramolecular G4, mainly antiparallel) was “no binding”.

Turning to CGGGGCGGGGCGGGGCCGGGC (structured_DNA) [TEAD4-far], in series [1] (G4, parallel and antiparallel components), the binding result was “no binding”.

Regarding CGGGCGGGCGAGGGGCCGGGCCGCCGGGGCGGGGCGGGGCCGGGC (structured_DNA) [TEAD4-full], the binding result in series [2] was “binds”.

Regarding CGGGCGGGCGAGGGGCCGGGTTGTTGGGGCGGGGCGGGGCCGGGC (structured_DNA) [TEAD4-full-2TT], the binding result in series [3] was “binds”.
